Measured values: patent publication US20130273056A1 (NATIONAL UNIVERSITY OF SINGAPORE, published 2013)

Target: T1, Estrogen receptor alpha (ERα) (UniProt P03372 1-595, limits assumed)
T1 sequence (looked up): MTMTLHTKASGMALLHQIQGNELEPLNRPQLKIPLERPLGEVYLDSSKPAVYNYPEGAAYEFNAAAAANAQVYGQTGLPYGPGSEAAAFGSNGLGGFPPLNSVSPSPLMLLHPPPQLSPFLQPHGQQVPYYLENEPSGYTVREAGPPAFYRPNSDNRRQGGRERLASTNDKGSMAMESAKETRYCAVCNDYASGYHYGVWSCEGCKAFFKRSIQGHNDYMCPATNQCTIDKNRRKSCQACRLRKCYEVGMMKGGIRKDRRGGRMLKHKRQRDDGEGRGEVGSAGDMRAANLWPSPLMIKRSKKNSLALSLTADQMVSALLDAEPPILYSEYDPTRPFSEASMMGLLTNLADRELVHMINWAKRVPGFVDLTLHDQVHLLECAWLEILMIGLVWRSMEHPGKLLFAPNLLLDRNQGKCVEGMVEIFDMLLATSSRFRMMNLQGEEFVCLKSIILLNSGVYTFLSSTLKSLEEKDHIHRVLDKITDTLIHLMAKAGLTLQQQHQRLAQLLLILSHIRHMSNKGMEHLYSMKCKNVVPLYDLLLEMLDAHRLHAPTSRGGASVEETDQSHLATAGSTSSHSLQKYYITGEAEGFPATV
Test: cell-based or functional assay

- ERα reporter activity (ERE-luciferase), loss of coactivator activity relative to vector and compared to WBP2: ~60%
B1: WBP2 Y192-231F phospho-defective double mutant, V5-tagged (other, not shown: small tags and cut ends)
chain: MALNKNHSEGGGVIVNNTESILMSYDHVELTFNDMKNVPEAFKGTKKGTVYLTPYRVIFLSKGKDAMQSFMMPFYLMKDCEIKQPVFGANYIKGTVKAEAGGGWEGSASYKLTFTAGGAIEFGQRMLQVASQASRGEVPSGAYGYSYMPSGAYVYPPPVANGMYPCPPGYPYPPPPPEFYPGPPMMDGAMGFVQPPPPPYPGPMEPPVSGPDVPSTPAAEAKAAEAAASAFYNPGNPHNVYMPTSQPPPPPYYPPEDKKTQ
